These results are taken from patent publication US20250177546A1 (SANYOU BIOPHARMACEUTICALS, published 2025).

B1: C42 (chimeric antibody) (antibody, human IgG1, kappa, V domains shown)
VH: EVMLVESGGGLVKPGGSLKLSCAASGFTFSNYIMSWVRQTPEKRLEWVATINSGGTNTYYPDSVKGRFTISRDNAKNSLYLQMNSLRSEDTALYYCTRYNGNYVWFAYWGQGTLVTVSA
VL: DIVLTQSPAIMSASPGEKVTMTCSASSSVSFIYWYQQKPGSSPRLLIYDTSNLASGVPVRFSGSGSGTSYSLTISRMEAEDAATYYCQQWSNYHFTFGSGTKLEIKR
notes: ExpiCHO expression
B2: B32 (chimeric antibody) (antibody, human IgG1, kappa, V domains shown)
VH: EVKLMESGGGLVKPGGSLKLSCAASGFAFSSYAMSWVRQTPDKRLEWVASINRDVTTYYPDSMKGRFTISRDNARNILYLQMSSLRSEDTAMYYCARGYYYGGGPYWHFDVWGAGTTVTVSS
VL: DIQITQSPSSMYASLGERVTITCKASQDINSYLTWFQQKPGKSPKTLIYRANRLVDGVPSRFSGSGSGQDYSLTISSLEYEDMGIYYCLQFDEFPYTFGGGTKLEIKR
notes: ExpiCHO expression
B3: M71 (chimeric antibody) (antibody, human IgG1, kappa, V domains shown)
VH: EVMLVESGGGLVKPGGSLKLSCAASGFTFSRYAMSWVRQTPEKRLEWVASINRGGTTYYPDSVKGRFTISRDNARDILYLQMSSLRSEDTAIYYCARDYYYGSSLYNGMDFWGQGTSVIVSS
VL: B2 VL with I4M, T34S, Y80S
notes: ExpiCHO expression
B4: B74 (chimeric antibody) (antibody, human IgG1, kappa, V domains shown)
VH: EVMLVESGGNLVKPGGSLKLSCAASGFTFSIYAMSWVRQTPEKRLEWVASISGGGTAYYPDSVKGRFTISRDNARNILYLQMSSLRSEDTAIYYCARGYYYGGSPYWHFDVWGAGTTVTVSS
VL: B2 VL with Q3K, I4M, T34S, M83I, F91I
notes: ExpiCHO expression
B5: B39 (chimeric antibody) (antibody, human IgG1, kappa, V domains shown)
VH: EVKLVESGGGLVKPGGSLKLSCAASGFTFSTYAMSWVRQTPEKRLEWVASISTGASTYYPDSVKGRFTISRDNARNILYLQMSSLRSEDTAMYYCAREETTTAALYYAMDYWGQGTSVTVSS
VL: B2 VL with Q3K, S31N, T34S
notes: ExpiCHO expression
B6: C38 (chimeric antibody) (antibody, human IgG1, kappa, V domains shown)
VH: B3 VH with K13R, R31S, E42D, G54D, G55V, D76N, I92M, N107Y, F111Y, I119T
VL: B2 VL with I4M, Y12H, S31N, L33V, T34S, L73F
notes: ExpiCHO expression
B7: C77 (chimeric antibody) (antibody, human IgG1, kappa, V domains shown)
VH: EVKLVESGGGLVKPGGSLKLSCAASGFSFSNYAMSWVRQTPEKRLEWVASINSGVTTYYPDSVKGRFTVSRDNARNILYLHMTGLRSEDTAIYYCSRGYYYGGSPYWHFDVWGAGTTVTVSS
VL: B2 VL with I4M, Y12H, S31N, L33V, T34S, L73F
notes: ExpiCHO expression
B8: B34 (chimeric antibody) (antibody, human IgG1, kappa, V domains shown)
VH: EVQLVESGGGLVQPKGSLKLSCAASGFTFSRYAMSWVRQTPEKRLEWVASISTGGSPYYPDSVKGRFTISRDNARNILYLQMSSLKSEDTAMYYCARGYYYNSSPHWYFAVWGAGTSVTVSS
VL: B2 VL with I4M, M11L, Y12S, T34S, F91Y
notes: ExpiCHO expression
B9: M78 (chimeric antibody) (antibody, human IgG1, kappa, V domains shown)
VH: B3 VH with K13R, R31S, T40S, S104N, F111Y
VL: B2 VL with Q3K, T34S
notes: ExpiCHO expression

Where a chain is given by its changes, count along the chain named.

T2 sequence (Q01974 34-403 limits assumed): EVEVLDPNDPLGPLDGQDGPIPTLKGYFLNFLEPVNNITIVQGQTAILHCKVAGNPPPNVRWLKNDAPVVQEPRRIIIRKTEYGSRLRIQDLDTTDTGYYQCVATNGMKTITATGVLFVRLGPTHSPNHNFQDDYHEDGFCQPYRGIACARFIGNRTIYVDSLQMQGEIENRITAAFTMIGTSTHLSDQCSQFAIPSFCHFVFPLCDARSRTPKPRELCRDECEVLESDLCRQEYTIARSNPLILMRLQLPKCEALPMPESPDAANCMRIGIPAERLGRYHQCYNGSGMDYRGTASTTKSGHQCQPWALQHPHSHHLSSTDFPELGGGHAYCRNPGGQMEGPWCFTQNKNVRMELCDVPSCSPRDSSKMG
T4 sequence (Q01973 30-937): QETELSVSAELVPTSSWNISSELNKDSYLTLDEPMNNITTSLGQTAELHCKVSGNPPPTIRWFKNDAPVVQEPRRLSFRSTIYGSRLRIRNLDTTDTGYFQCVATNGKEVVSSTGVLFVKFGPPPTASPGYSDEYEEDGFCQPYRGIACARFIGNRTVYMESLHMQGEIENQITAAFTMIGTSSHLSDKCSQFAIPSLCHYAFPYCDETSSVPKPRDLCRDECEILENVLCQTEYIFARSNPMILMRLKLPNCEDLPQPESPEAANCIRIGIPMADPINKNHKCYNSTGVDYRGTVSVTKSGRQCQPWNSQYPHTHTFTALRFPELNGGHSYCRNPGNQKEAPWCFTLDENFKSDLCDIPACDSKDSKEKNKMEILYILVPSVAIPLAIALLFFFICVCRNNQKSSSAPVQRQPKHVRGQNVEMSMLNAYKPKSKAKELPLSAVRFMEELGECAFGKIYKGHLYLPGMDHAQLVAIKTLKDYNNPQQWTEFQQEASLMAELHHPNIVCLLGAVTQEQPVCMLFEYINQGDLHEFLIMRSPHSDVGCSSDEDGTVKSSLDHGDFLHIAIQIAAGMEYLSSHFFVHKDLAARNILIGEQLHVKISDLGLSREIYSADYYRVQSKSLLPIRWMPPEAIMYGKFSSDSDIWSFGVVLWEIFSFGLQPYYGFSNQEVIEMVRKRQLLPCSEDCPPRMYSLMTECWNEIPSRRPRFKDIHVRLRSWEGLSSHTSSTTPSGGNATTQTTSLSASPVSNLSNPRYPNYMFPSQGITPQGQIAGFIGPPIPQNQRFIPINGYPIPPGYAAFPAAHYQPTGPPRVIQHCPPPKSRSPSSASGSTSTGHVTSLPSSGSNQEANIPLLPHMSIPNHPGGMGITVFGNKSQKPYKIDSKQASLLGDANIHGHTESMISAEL
T3 sequence (Q9Z139 30-406 limits assumed): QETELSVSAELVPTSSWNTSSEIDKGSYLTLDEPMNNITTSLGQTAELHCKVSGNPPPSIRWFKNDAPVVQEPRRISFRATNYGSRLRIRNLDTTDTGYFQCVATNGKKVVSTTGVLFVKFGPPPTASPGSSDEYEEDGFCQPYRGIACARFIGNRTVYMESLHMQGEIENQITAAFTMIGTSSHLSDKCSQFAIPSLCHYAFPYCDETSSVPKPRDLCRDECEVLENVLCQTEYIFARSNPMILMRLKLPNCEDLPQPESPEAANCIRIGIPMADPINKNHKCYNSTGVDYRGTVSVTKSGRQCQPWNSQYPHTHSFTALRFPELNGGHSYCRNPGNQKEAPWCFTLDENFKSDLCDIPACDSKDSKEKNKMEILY

For one test, the target named is T1, huROR1-His (human ROR1 ECD AA30-406 with C-terminal His tag, made in house) (human, UniProt Q01973 30-406).
T1 construct: range 30-406; Expressed in HEK293; also called antigen protein huROR1-His; not shown: C-terminal His tag
T1 sequence (Q01973 30-406 limits assumed): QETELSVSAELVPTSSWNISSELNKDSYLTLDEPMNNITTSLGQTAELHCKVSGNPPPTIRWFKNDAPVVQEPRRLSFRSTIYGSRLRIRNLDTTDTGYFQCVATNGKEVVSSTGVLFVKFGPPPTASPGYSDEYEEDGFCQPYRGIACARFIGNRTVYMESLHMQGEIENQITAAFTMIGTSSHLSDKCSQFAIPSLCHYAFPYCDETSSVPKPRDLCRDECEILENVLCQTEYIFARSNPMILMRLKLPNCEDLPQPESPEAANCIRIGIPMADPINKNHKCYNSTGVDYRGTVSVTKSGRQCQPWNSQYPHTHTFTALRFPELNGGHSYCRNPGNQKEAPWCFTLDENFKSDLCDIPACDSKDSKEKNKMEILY
The test is described as follows: Gator (BLI) Advanced Kinetics; antibody 30 nM, huROR1-His 480-7.5 nM. As for the experimental part: First, Q buffer was prepared with PBS (10 mM pH7.4) (IgG-free, purchased from Jackson ImmunoResearch Lab)+0.02% Tween 20 (purchased from thermo)+0.2% BSA (purchased from source culture), and the stock solution of the test antibody was diluted with the prepared Q buffer to a working solution with a final concentration of 30 nM, the stock solution of the antigen protein huROR1-His was prepared with Q buffer into a working solution with multiple dilutions (480, 240, 120, 60, 30, 15, 7.5 nM), and detection and analysis was then performed with Gator instrument and its accompanying software, selecting the Advanced Kinetics experimental mode is used.
Consider B1, for which the Kd amounted to 29.6 nM, the off-rate (koff) worked out at 0.00325 s⁻¹ and the kon turned out to be 110000 M⁻¹ s⁻¹.
In the case of B2, the Kd came out at 1.25 nM, the koff was 0.000377 s⁻¹ and the kon was determined as 301000 M⁻¹ s⁻¹.
For B3 the same measures were 1.54 nM, 0.00054 s⁻¹ and 351000 M⁻¹ s⁻¹.
For B4, in that order: 1.44 nM, 0.000464 s⁻¹ and 323000 M⁻¹ s⁻¹.
In turn, B5 yielded a Kd of 4.43 nM, a koff of 0.00135 s⁻¹ and a kon of 304000 M⁻¹ s⁻¹.
For B6 the same measures were 1.34 nM, 0.000422 s⁻¹ and 314000 M⁻¹ s⁻¹.
For B7 the same measures were 2.47 nM, 0.000774 s⁻¹ and 314000 M⁻¹ s⁻¹.
For B8 the same measures were 2.52 nM, 0.000609 s⁻¹ and 241000 M⁻¹ s⁻¹.
B9 showed a Kd of 1.86 nM, a koff of 0.000614 s⁻¹ and an association rate constant (kon) of 330000 M⁻¹ s⁻¹.

The next test has as its target T1, huROR1-His (human ROR1 ECD AA30-406 …). The test is described as follows: ELISA, huROR1-His coated at 2 µg/mL, goat anti-human Fc-HRP, OD450. As for the experimental part: (§1) 96-well ELISA plate was coated with 2 μg/mL huROR1-His (30 μL/well) at 4° C. overnight. The next day, the plate was washed three times with PBST and then blocked with 5% skim milk for 2 h. […] After washing with PBST for three times, the secondary antibody Goat-anti-human Fc-HRP (abcam, ab97225) was added and incubated for 1 h. After incubation, the plate was washed with PBST for 6 times and TMB (SurModics, TMBS-1000-01) was added for color development. According to the color development results, 2 M HCl was added to terminate the reaction, and the data were read at OD450 using a microplate reader (Molecular Devices, SpecterMax 190).
On the technique in general: ELISA stands for enzyme-linked immunosorbent assay.
Take B1: the EC50 was found to be 0.00203 µg/mL.
Same read-out and setting: under B2 stands 0.00575 µg/mL.
B3 displayed an EC50 of 0.0077 µg/mL.
On the same count and under the same terms, under B4 stands 0.00513 µg/mL; under B5, 0.00552 µg/mL.
Same read-out and setting: under B6 stands 0.00371 µg/mL; under B7, 0.00603 µg/mL; under B8, 0.00628 µg/mL.
On the same count and under the same terms, under B9 stands 0.00212 µg/mL.

The next test concerns the target T2, huROR2-His (human ROR2 ECD AA34-403 with C-terminal His tag) (human, UniProt Q01974 34-403).
T2 construct: range 34-403; Expressed in HEK293; also called human ROR2 antigen protein; not shown: C-terminal His tag
The test is described as follows: ELISA, huROR2-His coated at 2 µg/mL, goat anti-human Fc-HRP, OD450. The procedure: as §1, with “huROR2-His” for “huROR1-His”, “TMBS-1000-0)” for “TMBS-1000-01)”
As for B1, the binding result is on record as “no binding (tested: 1 µg/mL)”.
The same measure, in the same setting: under B2 stands “no binding (tested: 1 µg/mL)”; under B3, “no binding (tested: 1 µg/mL)”.
Still for that read-out and setting: the entry for B4 is “no binding (tested: 1 µg/mL)”; for B5 it is “no binding (tested: 1 µg/mL)”; for B6 it is “no binding (tested: 1 µg/mL)”.
Still for that read-out and setting: under B7 stands “no binding (tested: 1 µg/mL)”.
Consider B8, for which the binding result is recorded as “no binding (tested: 1 µg/mL)”.
Still for that read-out and setting: the entry for B9 is “no binding (tested: 1 µg/mL)”.

A further test addresses T3, MusROR1-His (mouse ROR1 ECD AA30-406 with C-terminal His tag) (mouse, UniProt Q9Z139 30-406).
T3 construct: range 30-406; Expressed in HEK293; also called mouse ROR1 antigen protein; not shown: C-terminal His tag
The test is described as follows: ELISA, MusROR1-His coated at 2 µg/mL, goat anti-human Fc-HRP, OD450. The procedure: as §1, with “MusROR1-His” for “huROR1-His”
With B1, the binding result was “binds”.
Regarding B2, the “EC50 (read off the curve)” value was ~0.04 µg/mL.
Take B3: the binding result is “no binding (tested: 1 µg/mL)”.
On the same count and under the same terms, the entry for B4 is “no binding (tested: 1 µg/mL)”; for B5 it is “no binding (tested: 1 µg/mL)”.
Turning to B6, the “EC50 (read off the curve)” value is ~0.03 µg/mL.
Turning to B7, the binding result is “no binding (tested: 1 µg/mL)”.
The same measure, in the same setting: the entry for B8 is “no binding (tested: 1 µg/mL)”; for B9 it is “no binding (tested: 1 µg/mL)”.

Another test addresses T4, human ROR1 on cells (full-length human ROR1 on huROR1-HEK293 cells; human ROR1 on A549 and HT-29 tumor cells) (human, UniProt Q01973 30-937).
T4 construct: whole, on cells; also called hROR1-HEK293T; A549 tumor cells
The test is described as follows: flow cytometry (FACS) on A549 tumor cells, anti-human IgG-Fc secondary antibody, MFI. The procedure: (§2) In this example, the binding activity of the antibody was evaluated using two types of cells, huROR1-HEK293 cells over-expressing human ROR1 and A549 tumor cells.
(§3) The specific method was as follows: huROR1-HEK293 cells or A549 cells in the logarithmic growth phase were prepared to a single-cell suspension, the density was adjusted to 1×10⁶ cells/mL, then 100 μL/well cells were added to a 96-well round-bottom plate, centrifuged at 4° C., 300 g, and the supernatant was removed. […] After the incubation, the cell mixture was washed three times and then 100 μL of 1:300 diluted secondary antibody Goat F(ab′)₂ Anti-Human IgG-Fc (abcam, ab98596) was added. The mixture was incubated at 4° C. in the dark for 30 min. After washing three times, the cells were detected by flow cytometry (Beckman, CytoFLEX AOO-1-1102).
A general note: In flow cytometry, cells or beads pass a laser one at a time.
Regarding B1, the “EC50 (read off the curve)” value was ~0.03 µg/mL.
The same measure, in the same setting: the figure for B2 is ~0.02 µg/mL; for B3 it is ~0.01 µg/mL.
Still for that read-out and setting: the figure for B4 is ~0.01 µg/mL; for B5 it is ~0.01 µg/mL.
The same measure, in the same setting: under B6 stands ~0.02 µg/mL.
Turning to B7, the “EC50 (read off the curve)” value was ~0.02 µg/mL.
On to B8, for which the “EC50 (read off the curve)” value is ~0.04 µg/mL.
B9: the “EC50 (read off the curve)” value is ~0.02 µg/mL.

Another test has as its target T4, human ROR1 on cells (full-length human …). The test is described as follows: flow cytometry (FACS) on huROR1-HEK293 cells, anti-human IgG-Fc secondary antibody, MFI. As for the experimental part:
as §2, §3
For B1, the “EC50 (read off the curve)” value is ~0.2 µg/mL.
Still for that read-out and setting: under B2 stands ~0.1 µg/mL; under B3, ~0.08 µg/mL.
Same read-out and setting: the figure for B4 is ~0.2 µg/mL; for B5 it is ~0.1 µg/mL; for B6 it is ~0.1 µg/mL.
On to B7, for which the “EC50 (read off the curve)” value was ~0.1 µg/mL.
The same measure, in the same setting: the figure for B8 is ~0.2 µg/mL; for B9 it is ~0.1 µg/mL.

One may read the Kd as the concentration at which binding is half-saturated. High values mean lower affinity, low ones higher affinity. One may read the koff as the rate constant with which the complex falls apart. Broadly, the kon is a measure of how fast the partners come together. What is called EC50 is the midpoint of the concentration-response curve. Broadly, the EC50 (read off the curve) is the concentration needed to bring the measured effect to its halfway point. A lower EC50 (read off the curve) goes with higher potency in that assay.
